Experimental data taken from IntAct's records for PubMed 10409743.

B1: Cell cycle serine/threonine-protein kinase hsk1 (Schizosaccharomyces pombe (strain ATCC 38366 / 972)), P50582 (parent)
chain: MAEAHITLSPKVTHEQQTDIDSECEITEVDDENVNENKSQEMIQDIPARDREEIENITRTFVELQENYRLIEKIGEGTFSSVYKAEDLHYGRYINDWDIQSEVLKESSFGKEKIPVNEDSRKPKYVAIKKIYATSSPARIYNELEILYLLRGSSVIAPLITALRNEDQVLVVLPYYEHTDFRQYYSTFSYRDMSIYFRCLFQAMQQTQTLGIIHRDIKPSNFLFDVRTKHGVLVDFGLAERYDGRQQSHSCRCTNSNAAELAHDFSIAQETSLGYIKNDTRPSKRANRAGTRGFRAPEVLFKCSSQSPKVDIWSAGVILLSFLTKRFPMFNSKDDVDALMEIACIFGKSEMRQCAALHGCTFETNVSTLTEKRVNFRKLILWASCGSASIYKEKLRHKPSQEERLCLDFLEKCLELDCNKRISAEEALDHDFLYLDNLAYEKKDDDTAFDNSFGETSFEKDEDLTAKHLSHILDFKEQEETDEPTSLSKRKRSIDEILPNDALQDGA
partner: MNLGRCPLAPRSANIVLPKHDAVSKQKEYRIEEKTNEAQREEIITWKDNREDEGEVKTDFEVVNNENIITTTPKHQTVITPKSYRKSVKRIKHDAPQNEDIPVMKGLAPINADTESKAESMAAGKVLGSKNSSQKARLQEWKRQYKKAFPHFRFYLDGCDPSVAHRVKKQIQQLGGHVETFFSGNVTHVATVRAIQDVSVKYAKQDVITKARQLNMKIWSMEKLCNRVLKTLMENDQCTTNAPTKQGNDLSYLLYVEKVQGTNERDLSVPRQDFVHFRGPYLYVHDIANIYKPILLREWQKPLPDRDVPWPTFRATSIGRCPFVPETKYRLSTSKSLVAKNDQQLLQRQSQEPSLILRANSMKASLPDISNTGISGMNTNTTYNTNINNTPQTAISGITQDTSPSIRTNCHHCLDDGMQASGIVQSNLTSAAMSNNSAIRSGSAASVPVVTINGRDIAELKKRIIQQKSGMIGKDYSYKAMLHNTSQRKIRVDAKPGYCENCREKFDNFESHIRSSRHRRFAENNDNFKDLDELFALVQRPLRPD

Variants of: B1
Details: with him1_schpo him1, O59836

| Variant | effect of a mutation on the interaction |
| --- | --- |
| K129A;K130S | with no effect |
